Test results taken from US10500274B2, “Methods for reducing viral load in HIV-1 infected patients” (CytoDyn Inc., priority 2008, dated 2019).
“And” between values parts separate entries of the source, which are not always exact repeats. Equal values may be shown once. Read-outs that look alike come from different tables or passages of the source.

Assays:
R5-tropic HIV-1 = test: Phase 1b clinical study: plasma HIV-1 RNA; assay type: in vivo, human
Procedure: Plasma HIV-1 RNA levels were determined with the Cobas Amplicor HIV-1 Monitor Test (Version 1.5; Roche Diagnostics, Branchburg, N.J.). Samples <400 copies/mL were re-analyzed with the Ultrasensitive Monitor Method. Co-receptor tropism was determined at screening and Days 1, 8, 29 and 59 (Trofile™ assay, Monogram Biosciences, Inc., South San Francisco, Calif.). Viral susceptibility was determined on Days 1 and 59 with the Phenosense™ HIV Entry assay. Results obtained with CCR5^+ target cells were reported as Fold Change or relative EC50 (rEC50), which was defined as (EC50 test isolate)/(EC50 reference virus). […] Maximum percent inhibitions were determined from the plateaus of the inhibition curves. The reference virus was HIV-192HT594, a low-passage dual-tropic isolate. GeneSeq™ (Monogram Biosciences) was used to assess HIV-1 subtype and genotypic susceptibility to protease and reverse transcriptase inhibitors.
Statistical analyses were performed on log10 transformed HIV-1 RNA data, and changes were calculated relative to baseline (Day 1 pre-dose). Treatment and placebo groups were compared using an analysis of variance (ANOVA) model. […] In addition, 2-sided paired t-tests were used to evaluate changes from baseline in CCR5^+ lymphocytes. Where necessary, end-of-study lymphocyte data were used in place of missing baseline data. […] AUC∞ values for individual subjects were used in the model. Clinical Trial Design and Study Results:
The subjects comprised 31 males and 8 females, and their median age, CD4 counts and plasma HIV-1 RNA levels at baseline were 40.3 years, 484 cells/μL and 26,900 copies/mL, respectively Fifteen subjects reported prior use of antiretroviral therapy, and seven were co-infected with hepatitis C virus (HCV). All viruses were subtype B, and baseline genotypic resistance to existing drugs was limited to single-class resistance in two subjects in the 2 mg/kg group and a single subject in each of the other groups. The mean infusion time was 36 minutes, and all subjects completed the 58-day follow-up period. All patients were screened prior to the study for the presence of virus that utilizes only CCR5 as the entry coreceptor, i.e., CCR5-tropic virus.

[1] = test system: CCR5+ and CD4+ lymphocytes; assay type: in vivo, human
Procedure: CCR5^+ and CD4^+ lymphocytes were measured by flow cytometry.

R5 HIV-1 = test: Phase 2 trial of subcutaneous PRO 140: HIV-1 RNA; assay type: in vivo, human
Procedure: More particularly, dosing comprises 162 mg q1wx3, 324 mg q1wx3, 324 mg q2wx2. Subcutaneous PRO 140 offers a long-acting, self-administered therapy for HIV infection.
Subjects were followed for a total of 58 days for safety and antiviral effects. Entry criteria included: HIV-1 RNA >5,000 copies/mL, R5 virus, […], no antiretroviral therapy <12 weeks.

[2] = Phase 1b clinical study: safety, anti-PRO 140 antibodies, plasma RANTES
From the text: Subjects were ≥18 years of age with plasma HIV-1 RNA ≥5,000 copies/mL, R5-tropic HIV-1 only, CD4^+ cells ≥250/μL with no documented nadir ≤200/μL and no antiretroviral therapy for at least 3 months. Major exclusion criteria included pregnancy, history of AIDS-defining illness, the presence of X4-tropic HIV-1, and acute or symptomatic viral hepatitis within the prior 6 months.
Evaluations of clinical subjects included physical examinations, 12-lead electrocardiograms, vital signs, concomintant medications, and adverse events reporting. Clinical laboratory tests evaluated serum chemistries, hematology and urinalysis.
Samples below the LLOQ were assigned a value of zero. PK metrics were estimated using non-compartmental methods. The area under the serum concentration-time curve from time zero to infinity (AUC) was calculated using the linear trapezoidal rule. The terminal serum half-life was calculated by regression of the terminal portion of the concentration-time curve. […] Sera were tested at a 1:10 dilution initially, and positive samples were serially diluted for titer analysis.
CCR5^+ and CD4^+ lymphocytes were measured by flow cytometry. […] CTC5-PE data were used to determine the absolute number of circulating CCR5^+ lymphocytes pre- and post-treatment. RANTES was measured in platelet-depleted plasma using a validated ELISA.

B1: PRO 140: humanized IgG4,κ anti-CCR5 mAb, humanized version of the murine mAb PA14 (antibody, chains of the INN, looked up, V domains shown)
VH: EVQLVESGGGLVKPGGSLRLSCAASGYTFSNYWIGWVRQAPGKGLEWIGDIYPGGNYIRNNEKFKDKTTLSADTSKNTAYLQMNSLKTEDTAVYYCGSSFGSNYVFAWFTYWGQGTLVTVSS
VL: DIVMTQSPLSLPVTPGEPASISCRSSQRLLSSYGHTYLHWYLQKPGQSPQLLIYEVSNRFSGVPDRFSGSGSGTDFTLKISRVEAEDVGVYYCSQSTHVPLTFGQGTKVEIK
AUC50, exposure required to achieve 50% of Emax (R5-tropic HIV-1; Emax model): 43.7 ± 15.6 mg·days/L
Mean HIV-1 RNA reduction (maximum) (R5-tropic HIV-1; HIV-infected adults, single IV 0.5 mg/kg): 0.58 log10
day by which viral loads returned to baseline (R5-tropic HIV-1; all treatment groups): ≤ 29 days
lowest documented HIV-1 RNA level on study (R5-tropic HIV-1; human, in vivo): 61 copies/mL
Log10 change from baseline in HIV-1 RNA: Mean (±SD) of individual nadirs (R5-tropic HIV-1; single IV 0.5 mg/kg): −0.58 ± 0.30 log10
antiviral response rate (subjects with ≥1.0 log10 reduction at any time) (R5-tropic HIV-1; single IV 0.5 mg/kg): 10%
mean log10 decline in viral load at Day 10 (R5-tropic HIV-1; single IV 0.5 mg/kg): 0.37 log10
Log10 change from baseline in HIV-1 RNA: Mean (±SD) at Day 10 (R5-tropic HIV-1; single IV 0.5 mg/kg, 0.5 mg/kg): −0.37 log10 and −0.37 ± 0.54 log10
Log10 change from baseline in HIV-1 RNA: Mean (±SD) of individual nadirs (R5-tropic HIV-1; single IV 2 mg/kg): −1.20 ± 0.63 log10
Mean HIV-1 RNA reduction (maximum) (R5-tropic HIV-1; single IV 2 mg/kg): 1.20 log10
antiviral response rate (subjects with ≥1.0 log10 reduction at any time) (R5-tropic HIV-1; single IV 2 mg/kg): 60%
mean log10 decline in viral load at Day 10 (R5-tropic HIV-1; single IV 2 mg/kg): 1.04 log10
Individual HIV-1 RNA reductions (ranged to) (R5-tropic HIV-1; single IV 2 mg/kg, 2 mg/kg): up to 2.5 log10 and ≤ 2.5 log10
Log10 change from baseline in HIV-1 RNA: Mean (±SD) at Day 10 (R5-tropic HIV-1; single IV 2 mg/kg, 2 mg/kg): −1.04 log10 and −1.04 ± 0.45 log10
Mean HIV-1 RNA reduction (average maximum decrease of viral load) (R5-tropic HIV-1; single IV 5 mg/kg): 1.83 log10
antiviral response rate (subjects with ≥1.0 log10 reduction at any time) (R5-tropic HIV-1; single IV 5 mg/kg): 100%
day on which mean viral load reductions of 1 log10 were first observed (R5-tropic HIV-1; single IV 5 mg/kg): 5 Day
mean log10 decline in viral load at Day 10 (nine days post-treatment) (R5-tropic HIV-1; single IV 5 mg/kg): 1.70 log10
persistence of mean 1 log10 viral load reduction post-treatment (R5-tropic HIV-1; single IV 5 mg/kg): 2-3 weeks
viral load change at day 22 (R5-tropic HIV-1; single IV 5 mg/kg): −0.73 log
Individual HIV-1 RNA reductions (ranged to) (R5-tropic HIV-1; single IV 5 mg/kg, 5 mg/kg): up to 2.5 log10 and ≤ 2.5 log10
Log10 change from baseline in HIV-1 RNA: Mean (±SD) at Day 10 (R5-tropic HIV-1; single IV 5 mg/kg, 5 mg/kg): −1.70 log10 and −1.70 ± 0.49 log10
Log10 change from baseline in HIV-1 RNA: Mean (±SD) of individual nadirs (R5-tropic HIV-1; single IV 5 mg/kg, 5 mg/kg): −1.8 log10 and −1.84 ± 0.41 log10
duration of maximal masking or coating of CCR5 ([1]; 0.5 mg/kg): 1 week
average increase in CD4+ lymphocytes ([1]; 5 mg/kg, Day 8): 129 cells/mm^3
mean change in CD4+ cells over baseline ([1]; 5 mg/kg, Day 8): +129 cells/μL
mean change in CD4+ cells over baseline ([1]; 5 mg/kg, Day 15): +96 cells/μL
mean change in CD4+ cells over baseline ([1]; 5 mg/kg, Day 22): +83 cells/μL
mean change in CD4+ cells over baseline ([1]; 5 mg/kg, Days 29 and 59): < +10 cells/μL
change in CD4+ cells (in words) ([1]; 0.5 and 2 mg/kg groups): No significant change
duration of maximal (high-level) coating of CCR5 ([1]; 2 and 5 mg/kg (higher dose levels)): 2 weeks
duration of significant (p<0.05) coating of CCR5+ lymphocytes ([1]; all PRO 140 treatment groups): 2-4 weeks
depletion of CCR5+ cells ([1]; human, in vivo): no depletion of CCR5^+ cells
mean reduction in viral load at day 22 (R5 HIV-1; SC 162 mg weekly): 0.75 log 10
% subjects with ≥1 log10 drop (R5 HIV-1; SC 162 mg, Days 1, 8, 15): 55%
Max viral load reduction (mean) (R5 HIV-1; SC 162 mg, Days 1, 8, 15): 0.99 log10
Max viral load reduction: Range (R5 HIV-1; SC 162 mg, Days 1, 8, 15): −0.23 to −1.92 log10
Mean duration in days ≥1 log10 drop (R5 HIV-1; SC 162 mg, Days 1, 8, 15): 14 days
log10 change in HIV-1 RNA: Day 22 Mean (R5 HIV-1; SC 162 mg, Days 1, 8, 15): −0.75 log10
log10 change in HIV-1 RNA: Day 22 Median (R5 HIV-1; SC 162 mg, Days 1, 8, 15): −0.77; p = 0.0072 log10
maximum log10 change in HIV-1 RNA: Mean (R5 HIV-1; SC 162 mg, Days 1, 8, 15): −0.99 log10
maximum log10 change in HIV-1 RNA: Median (R5 HIV-1; SC 162 mg, Days 1, 8, 15): −1.06; p = 0.0093 log10
mean reduction in viral load at day 22 (R5 HIV-1; SC 324 mg bi-weekly): 1.20 log 10
mean reduction in viral load at day 22 (R5 HIV-1; SC 324 mg weekly): 1.51 log 10
% subjects with ≥1 log10 drop (R5 HIV-1; SC 324 mg, Days 1, 8, 15): 73%
Max viral load reduction (mean) (R5 HIV-1; SC 324 mg, Days 1, 8, 15): 1.65 log10
Max viral load reduction: Range (R5 HIV-1; SC 324 mg, Days 1, 8, 15): −0.76 to −2.50 log10
Mean duration in days ≥1 log10 drop (R5 HIV-1; SC 324 mg, Days 1, 8, 15): 20 days
log10 change in HIV-1 RNA: Day 22 Mean (R5 HIV-1; SC 324 mg, Days 1, 8, 15): −1.51 log10
log10 change in HIV-1 RNA: Day 22 Median (R5 HIV-1; SC 324 mg, Days 1, 8, 15): −1.50; p < 0.0001 log10
maximum log10 change in HIV-1 RNA: Mean (R5 HIV-1; SC 324 mg, Days 1, 8, 15): −1.65 log10
maximum log10 change in HIV-1 RNA: Median (R5 HIV-1; SC 324 mg, Days 1, 8, 15): −1.74; p < 0.0001 log10
% subjects with ≥1 log10 drop (R5 HIV-1; SC 324 mg, Days 1, 15): 67%
Max viral load reduction (mean) (R5 HIV-1; SC 324 mg, Days 1, 15): 1.37 log10
Max viral load reduction: Range (R5 HIV-1; SC 324 mg, Days 1, 15): −0.35 to −3.53 log10
Mean duration in days ≥1 log10 drop (R5 HIV-1; SC 324 mg, Days 1, 15): 18 days
log10 change in HIV-1 RNA: Day 22 Mean (R5 HIV-1; SC 324 mg, Days 1, 15): −1.20 log10
log10 change in HIV-1 RNA: Day 22 Median (R5 HIV-1; SC 324 mg, Days 1, 15): −1.03; p < 0.0001 log10
maximum log10 change in HIV-1 RNA: Mean (R5 HIV-1; SC 324 mg, Days 1, 15): −1.37 log10
maximum log10 change in HIV-1 RNA: Median (R5 HIV-1; SC 324 mg, Days 1, 15): −1.16; p = 0.0001 log10
continuation of suppression following the last dose (R5 HIV-1; SC 324 mg, days 1, 8 and 15): 7 days
serious adverse events / dose-limiting toxicity ([2]; human, in vivo): No drug-related serious adverse events or dose-limiting toxicity was reported
effect on QTc intervals / electrocardiogram ([2]; single IV 0.5, 2 and 5 mg/kg): no clinically relevant drug-related effect on QTc intervals
